Results published in PMC3325594 (International Journal of Toxicology, 2012).

Assays:
female rats = assay: 2-year carcinogenicity study, survival rates in female rats; format: in vivo; settings: 5 IU/kg
female mice = assay: 2-year carcinogenicity study, survival rates in female mice; format: in vivo; settings: 12.5 IU/kg
rats = settings: 12-month toxicity study; cited from earlier work
mammalian cell lines = settings: cited from earlier work
[1] = test system: insulin-like growth factor 1 receptor (IGF-1R); settings: in vitro; cited from earlier work
insulin receptor (IR) = settings: in vitro; cited from earlier work
[2] = test system: insulin receptor (IR) signaling; settings: cited from earlier work
[3] = test system: mammary gland of young female rats; settings: 26-week toxicity study; cited from earlier work

NPH: neutral protamine Hagedorn (NPH) insulin, comparator group
Survival rate (female rats; week 80): 72% | Survival rate (female rats; week 81): 72% | Survival rate (female rats; week 82): 72% | Survival rate (female rats; week 83): 70% | Survival rate (female rats; week 84): 70% | Survival rate (female mice; week 80): 56% | Survival rate (female mice; week 81): 56% | Survival rate (female mice; week 82): 56% | Survival rate (female mice; week 85): 50% | Survival, animals alive (female mice; week 88, of 50 initial animals): 22 n | Survival, animals alive (female mice; week 89, of 50 initial animals): 22 n

[Asp^B10] insulin
Incidence of mammary tumors (rats): higher incidence of mammary tumors | Proliferation rate in mammalian cell lines compared to regular human insulin (mammalian cell lines): higher proliferation rate | Affinity toward IGF-1R compared to regular human insulin [1]: higher affinity | Affinity toward the insulin receptor (IR) compared to regular human insulin (insulin receptor (IR)): higher affinity | Occupancy time at the IR compared to regular human insulin (insulin receptor (IR)): prolonged occupancy time

[Gly^A21, des-Thr^B30]-human insulin [M2]
In vitro metabolic and mitogenic profiles [2]: comparable with human insulin

[Gly^A21] human insulin [M1]
In vitro metabolic and mitogenic profiles [2]: comparable with human insulin

insulin detemir
Proliferative effect in the mammary gland [3]: modest proliferative effect
